Source: PMC5341729 (Molecular Biology of the Cell, 2017)

T1: MYO10-TPRN^BAIT (taperin fused to MYO10^HMM) (mouse, UniProt A2AI08 1-749)
T1 sequence: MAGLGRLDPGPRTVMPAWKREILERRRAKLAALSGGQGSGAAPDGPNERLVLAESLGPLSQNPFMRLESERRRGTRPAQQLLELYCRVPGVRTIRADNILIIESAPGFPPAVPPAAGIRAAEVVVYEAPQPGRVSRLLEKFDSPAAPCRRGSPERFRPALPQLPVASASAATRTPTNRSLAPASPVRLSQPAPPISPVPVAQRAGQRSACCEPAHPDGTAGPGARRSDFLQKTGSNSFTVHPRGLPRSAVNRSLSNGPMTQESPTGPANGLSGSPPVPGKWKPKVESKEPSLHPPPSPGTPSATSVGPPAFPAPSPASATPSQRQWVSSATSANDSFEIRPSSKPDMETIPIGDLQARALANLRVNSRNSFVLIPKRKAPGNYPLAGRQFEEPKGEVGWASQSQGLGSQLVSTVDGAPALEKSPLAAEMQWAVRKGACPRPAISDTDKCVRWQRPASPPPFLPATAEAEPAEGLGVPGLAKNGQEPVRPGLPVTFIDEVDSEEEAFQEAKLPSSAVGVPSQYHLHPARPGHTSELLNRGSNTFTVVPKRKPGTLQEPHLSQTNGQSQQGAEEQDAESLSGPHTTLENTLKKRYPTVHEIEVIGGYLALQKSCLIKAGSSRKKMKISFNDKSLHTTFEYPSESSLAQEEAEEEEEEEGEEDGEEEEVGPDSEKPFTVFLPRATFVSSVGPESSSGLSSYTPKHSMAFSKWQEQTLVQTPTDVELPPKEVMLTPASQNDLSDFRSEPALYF

T2: MYO10-MYO7A(TAIL)^BAIT (EGFP-MYO10^HMM fused to the tail domain of MYO7A) (UniProt Q13402 858-2215)
T2 sequence: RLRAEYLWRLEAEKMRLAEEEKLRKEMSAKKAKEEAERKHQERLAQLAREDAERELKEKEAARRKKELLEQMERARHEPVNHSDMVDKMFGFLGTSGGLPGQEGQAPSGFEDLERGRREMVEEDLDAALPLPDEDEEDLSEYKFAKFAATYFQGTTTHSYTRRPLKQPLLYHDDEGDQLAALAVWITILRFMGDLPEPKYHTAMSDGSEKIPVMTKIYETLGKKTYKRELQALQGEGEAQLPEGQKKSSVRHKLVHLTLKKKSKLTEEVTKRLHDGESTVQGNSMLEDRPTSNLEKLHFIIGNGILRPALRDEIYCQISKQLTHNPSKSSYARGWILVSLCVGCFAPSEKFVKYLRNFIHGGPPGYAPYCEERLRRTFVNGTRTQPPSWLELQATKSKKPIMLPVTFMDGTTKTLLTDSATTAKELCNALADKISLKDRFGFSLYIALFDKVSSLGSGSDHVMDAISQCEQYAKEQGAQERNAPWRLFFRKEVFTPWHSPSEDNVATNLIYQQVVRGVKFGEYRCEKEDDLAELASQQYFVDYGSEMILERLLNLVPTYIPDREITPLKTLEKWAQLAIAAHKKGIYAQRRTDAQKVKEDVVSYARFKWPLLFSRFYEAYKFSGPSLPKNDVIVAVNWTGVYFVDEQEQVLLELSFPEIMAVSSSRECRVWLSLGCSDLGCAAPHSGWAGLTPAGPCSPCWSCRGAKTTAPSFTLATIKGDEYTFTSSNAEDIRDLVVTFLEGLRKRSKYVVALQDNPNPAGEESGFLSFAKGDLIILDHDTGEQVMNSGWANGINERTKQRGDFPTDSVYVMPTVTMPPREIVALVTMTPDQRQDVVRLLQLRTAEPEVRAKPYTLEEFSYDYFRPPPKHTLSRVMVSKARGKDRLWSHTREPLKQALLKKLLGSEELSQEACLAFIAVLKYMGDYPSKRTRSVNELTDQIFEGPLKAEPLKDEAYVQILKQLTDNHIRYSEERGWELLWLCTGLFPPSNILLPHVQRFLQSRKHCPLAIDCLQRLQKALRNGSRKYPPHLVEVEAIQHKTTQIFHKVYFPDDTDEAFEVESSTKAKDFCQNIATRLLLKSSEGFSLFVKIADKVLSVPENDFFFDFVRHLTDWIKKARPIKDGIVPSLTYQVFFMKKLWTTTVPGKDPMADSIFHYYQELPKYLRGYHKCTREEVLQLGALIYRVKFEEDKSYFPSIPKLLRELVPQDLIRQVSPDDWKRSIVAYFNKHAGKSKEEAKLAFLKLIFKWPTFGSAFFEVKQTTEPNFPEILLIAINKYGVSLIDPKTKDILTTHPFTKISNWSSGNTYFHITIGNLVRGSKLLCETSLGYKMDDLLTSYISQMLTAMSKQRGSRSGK

B1: CHD4(561-936)^PREY (domain or fragment)
chain: QVMFRNYQRKNDMDEPPSGDFGGDEEKSRKRKNKDPKFAEMEERFYRYGIKPEWMMIHRILNHSVDKKGHVHYLIKWRDLPYDQASWESEDVEIQDYDLFKQSYWNHRELMRGEEGRPGKKLKKVKLRKLERPPETPTVDPTVKYERQPEYLDATGGTLHPYQMEGLNWLRFSWAQGTDTILADEMGLGKTVQTAVFLYSLYKEGHSKGPFLVSAPLSTIINWEREFEMWAPDMYVVTYVGDKDSRAIIRENEFSFEDNAIRGGKKASRMKKEASVKFHVLLTSYELITIDMAILGSIDWACLIVDEAHRLKNNQSKFFRVLNGYSLQHKLLLTGTPLQNNLEELFHLLNFLTPERFHNLEGFLEEFADIAKEDQI
B2: mCherry-MYRIP (MYO7A-Rab interacting protein), MYRIP^PREY (natural protein)
chain: MGRKLDLSGLTDDETEHVLQVVQRDFNLRKKEEERLSELKQKLDEEGSKCSILSKHQQFVEHCCMRCCSPFTFLVNTKRQCGDCKFNVCKSCCSYQKHEKAWVCCVCQQARLLRAQSLEWFYNNVKSRFKRFGSAKVLKNLYRKHRLESGACFDILGGSLFESNLENEGSISGSDSTFYRQSEGHSVMDTLAVALRVAEEAIEEAISKAEAYGDSLDKQNEASYLRDHKEELTEELATTILQKIIRKQKSKSEQQVEEEPGWPHPQSCSTKVADEGTSASPGGYRAPAALWRSQSAFSITGEEALKTPPVEAPSRQPRDQGQHPRAESALPSWKSVDRLDETNLAPVLQSPDGNWVALKDGAPPPTRLLAKPKSGTFQALEVASSVASAYDEMGSDSEEDFDWSEALSKLCPRSRALPRNPQPQPTQAQSSDQGPIAASPSSALSPNPEAMCSDSETSSAGSSREVGHQARLSWLQRKAPRNPAAEKMRLHGELDVNFNPQLASRETSDSSEPEEAPHTTDRRARRWRRARLGSEEPSKEPSSPSAQLRDLDTHQVSDDLSETDISNEARDPQTLTDTTEEKRRNRLYELAMKMSEKETSSGEDQESEPKTESENQKESLSSEDNSQSVQEELKKKFSAVSLCNISTEVLKVINATEELIAGSTGPWESPQVPPDRQKGMFPRGTDQVRLDEQLTSLEENVYLAAGTVYGLETQLTELEDAARCIHSGTDETHLADLEDQVATAAAQVHHAELQISDIESRISALTIAGLNIAPCVRFTRRRDQKQRTQVQTIDTSRQQRRKLPAPPVKAEKIETSSVTTIKTFNHNFILQGSSTNRTKERKGTTKDLMEPALESAVMY

Assays:
[1] = molecular target: T1, MYO10-TPRN^BAIT (taperin fused to …); assay: NanoSPD
[2] = molecular target: T2, MYO10-MYO7A(TAIL)^BAIT (EGFP-MYO10^HMM …); assay: NanoSPD

Row | Binder | fold increase of prey fluorescence at filopodial tips against MYO10^(NO BAIT) [1] | fold increase of prey fluorescence at filopodial tips against MYO10^(NO BAIT) [2]
1 | B1 | 7 fold | 
2 | B2 |  | 11.8 fold
